Results published in patent publication US7666835B2 (Imperial Innovations Limited, priority 2001, dated 2010).

Tests used:
[1] = ICV injection, food intake in 24-h fasted rats (studies 1a, 2a); assay type: in vivo, rat; details: study 1a; 3 nmol ICV; 24-h fasted rats; vs saline
Description: (§1) Animals had permanent stainless steel guide cannulas (Plastics One, Roanoke, Va.) stereotactically implanted ICV or iPVN.

[2] = iPVN injection, food intake in 24-h fasted rats (studies 1b, 2b); assay type: in vivo, rat; details: study 1b; iPVN; OXM, GLP-1 (3 nmol [sic]), exendin-4 0.03 nmol, glicentin, glucagon 1 nmol, SP-1 3 nmol; fasted rats
Description: as §1
Therefore, exendin-4 was injected iPVN at a dose of 0.03 nmol.

B1: glicentin (peptide, UniProt P01275 21-89, looked up)
Glicentin: RSLQDTEEKSRSFSASQADPLSDPDQMNEDKRHSQGTFTSDYSKYLDSRRAQDFVQWLMNTKRNRNNIA
modifications: Glicentin
notes: proglucagon-derived peptide purchased from Peninsula Laboratories
[1]
  refeeding (food intake) after ICV injection: failed to affect food intake at any time point
[2]
  refeeding (food intake) after iPVN injection: failed to affect food intake at any time point
